The source of these data is patent US20110166034A1.

For test [1], the target named is F5 MART-1 TCR, on Jurkat^α-MART-1 cells or on transduced human PBMCs. Briefly: immuno-PCR of the DNA tag after staining of cells, gel electrophoresis.
Test [2] has the same target. Briefly: multiplexed cell sorting of a 1:1 cell mix; the number is an average over spots A and B.
In test [3] the target is TCR specific for tyrosinase368-376, on Jurkat^α-Tyr cells. Briefly: immuno-PCR of the DNA tag after staining of cells, gel electrophoresis (non-cognate control).
Test [4] has as its target TCR of murine OT1 lymphocytes (specific for OVA257-264). Briefly: cell-based or functional assay.
The target of test [5] is TCR specific for tyrosinase368-376, on Jurkat^α-Tyr cells. Briefly: cell capture on a NACS array, mean of three spots of about 600 µm.
Test [6] has the same target. The experiment in a line: multiplexed cell sorting of a 1:1 cell mix; the number is an average over spots A and B.
In test [7] the target is F5 MART-1 TCR, on Jurkat^α-MART-1 cells or on transduced human PBMCs. The experiment in a line: T cell capture density against the amount of p/MHC spotted on the covalent surface, Hill fit.

Take “MART-1 26-35/HLA-A2.1 ssDNA-p/MHC tetramer on the SAC scaffold (from UniProt P61769 21-119) (peptide-MHC)”: the PCR cycles to detection of the DNA tag is less than 15 cycles in test [1] and 10 cycles in test [3]. Moreover, in test [2], the average density (T cells/spot) came out at 661 T cells/spot. The substance “H-2Kb-OVA257-264 ssDNA-p/MHC tetramers (SAC scaffold, encoded to strands A', B' and C') (from UniProt P01901 22-305) (peptide-MHC)” registered an IFN-y clusters (ELISPOT-type sandwich assay on the array) in test [4] of 3 clusters. Take “tyrosinase368-376/HLA-A2.1 ssDNA-p/MHC tetramer on the SAC (streptavidin-cysteine) scaffold (from UniProt P61769 21-119) (peptide-MHC)”: the mean binding capacity (cells per spot) (T cells per spot) in test [5] is 1490. The substance further gave an average density (T cells/spot) in test [6] of 661 T cells/spot. Substance “fluorescent MART-1 SA-PE tetramer (MART-1 26-35 loaded onto HLA-A2.1 MHC molecules) (from UniProt P61769 21-119) (peptide-MHC)” had a K1/2 (p/MHC monomer at half max) in test [7] of 5.7 ng.
